This passage reports stoichiometry N results from PMC4111287.

This assay deals with soluble human PEX3 (reading frame from G25, C235S) (human) (UniProt P56589). Briefly: native MS; PEX3 and PEX19 mixed in equimolar concentrations (5-10 µM), overnight at 4°C in 20 mM sodium phosphate, 300 mM NaCl, 1 mM DTT, pH 8.0; nano-electrospray on a QToF I under conditions that preserve non-covalent interactions; complex analysed at 10 µM.
UniProt P56589, sequence (P56589 25-373 C235S): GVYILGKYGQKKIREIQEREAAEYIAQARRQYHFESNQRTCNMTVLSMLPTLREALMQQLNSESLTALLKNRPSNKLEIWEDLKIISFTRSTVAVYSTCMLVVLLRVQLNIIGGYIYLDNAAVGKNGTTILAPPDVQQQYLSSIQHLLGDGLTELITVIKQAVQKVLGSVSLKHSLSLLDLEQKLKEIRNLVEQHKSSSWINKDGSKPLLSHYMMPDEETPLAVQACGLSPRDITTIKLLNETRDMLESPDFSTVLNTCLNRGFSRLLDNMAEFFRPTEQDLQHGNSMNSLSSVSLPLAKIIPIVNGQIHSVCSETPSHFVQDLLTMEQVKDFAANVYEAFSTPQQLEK

The term stoichiometry N denotes the number of molecules, sites or subunits per partner or assembly. In turn, “full length human PEX19 with an N-terminal His-tag (from UniProt P56589 1-373) (natural protein)” came in with a stoichiometry N of 1.
